# In the DeepSol protein solubility set:
# Test: soluble on expression in E. coli; label from the status in PepcDB or PDB records
row,Sequence,soluble on expression in E. coli
1,MSLTTDWTTQVAAAAASVTAAEVDTARRALDYLCLAQLYLRDNVTLSTPLQPGHVKPAPAGHWGVCPPVNAVLAALGPYRRMPGTDVRVVHGGGHAGPSALAHAWITGALDTGEDAFGHTEVDLARLCAQFPRTRFGGEITPLIPGHDHLGGQLGPALAIAHGMGLDAPDRLVVAVIGDGECETGATAAAWLGARALIGTGTHGRVLPVILANGLRMGSASLLAALDPCDLARHLGGLGYEVITAGPSTDEITAAVARALTGLRPLQYGPSTVVVVTVDKGHGVPKTVAGQQIAQTPRVHKVPLRNPRDDNAEFVALERWLSGYRPQELFTGGAPTATVRRALAPAATGRVELHAPRGCIAAASAVADRVAGADFGAAITATLRELNTVYGLRVFSPDELASNRIELGAPDSGWTIEVLNEELCHAWAQGYQATGRRGVVVGYEAFAPITASLLAQQLLAHRLAAAAGRPPGPSLVYLLTSLGWHNTITHANPGLIDIAIGTADPSVHIYLPADATRTAAALTFAVRKLGRASLVVASKHPMPAHPHTTIDAELRDGYAVWPHIADDLDPEMVLVSIGDIAARELTRAATTITATRTATRLRYLHIHDLTSLGAPGRRDAAISAADFERLFPPGAAVLIATTCHPAAVHALLGERGAPRTVVVRGWANPPLPMSHDELLDHTGIAATALHEAALALLDSTTCDPLIRQGAREGHHHHHH,soluble
2,MSLTVMSIQDNLTINEKKVLLALEELRSAVPDKLEEKSGLQIDAAMQAAFMLQEKELASVSEKVLERYSLTKEGEEYKKTGLPERQIIDALKNPVSLEELRSCFSPQTVGIATGWLVKKGWAKVENGIMVPSGEASEGKDEKALSAFAGKAKTLEELGADEGTVKDLLKRKLVVKHEEKFRTVSITDAGSELASQGLVLEEEIAQLTPELLKSGAWKEKKFRPYRLDITPKPLYGTKIHPYRRLIEQMRQIFLEMGFTEIKGGIIQSSFWNFDALFQPQDHPARDMQDTFHLGSTCQIPAEYSGKVAAMHENGGDIDSCGWGGIWDRELAGRNVLRTHTTSVTIKYLADNPEPPVKAFCIDRAYRRETIDPTHTPEFEQLEGVVMDKDMSFADLLGLLAEFYHRMGFEEVRFRPGYFPYTEPSVEPEVYVDGLGWVELGGAGVFRKEVTEPLGIKAPVLAWGLGVSRLAMLKLGLKDLRLLYQSDIDWLRKSEVCKEGHHHHHH,soluble
3,MSLVAVRSAHLNPDQQFELETWIASLTQEGKTAAKLTAVYRDCEQLLAGNPQGPLLLWRGREMIEILITLSMDRPTLVAALLFPIATSGVLDNESLEEGYGREVVKLIHGVEEMAAIGQLNVTMHGSEASAQVDNVRRMLLAMVDDFRCVVIKLAERICNLREVKNEPDEVRRVAAKECANIYAPLANRLGIGQLKWEIEDYAFRYQQPDTYKQIAKQLSERRIVREQYIRDFVSDLRAEMKQSGINAEVSGRPKHIYSIWRKMQKKSLAFDELFDVRAVRIIADKLQDCYAALGIVHTKYKHLPNEFDDYVANPKPNGYQSIHTVILGPEGKTIEIQIRTKQMHEESELGVAAHWKYKEGSSAARSGYDEKITWLRKLLDWQEEMSDSGEMLDELRSQVFDDRVYAFTPKGDVVDLPMGATPLDFAYHIHSEVGHRCIGAKVAGRIVPFTHKLQMGDQVEIITAKEPNPSRDWLNPSLGFVHSGRARAKINAWFRKQSREKNLEAGREILEIELAKIGANLKHAEAYALKRFNVNSVDEMYVGIGSGDLRINQIVNHINALVNKPTAEEEDKLALEKLQENKTLTPNRPHKDAVVVEGVDNLMTHLARCCQPIPGDEIRGYITQGRGISVHRSDCEQLEELSLHAPERIIDTVWGSGFVGSYLLTVRVEAMERSGLLKDITTLLANEKVKVASMKSRSDYKRQIIIMDFDLEVNNVEALARVSKRIEQIKDVMLVKRLGEGHHHHHH,not soluble
4,MSLVDDPLIVVNSEKVDKEYAELLMDKYYSKRTLEINSDNEIVVTENIIYNVPALDEFEINDGKGNLLVEFTKSGETVTYKNFEYEEELESDDEGDEVTFMGKTYKLIEYDEDEKIVLGNKVEDTETTEEFSYDAFTFKIIGMDSTGQILVSVYEGSDRIENVKMYPDDTYFVSGSKISIYYDEYMESGDTPYFFFEIYDSLEIEDGETISGYSNIDTDLDGKRINLEYESPKSLSQNFELLNYKVELTDVSDEDLTVFFTVTQNLNYEFDMDEGTKYFGNNIFAVKIENDEDDDSDDESYLYKNNKKYSEIVDYQGSVQLVDQDELLSASSDLILIGGPVSNKVTESIQNSLSVEVTNDYPGEGKGIIQTITNPNNDESTILVLAGSDRDGTKACVLALNQGLYSGSGNLVVKLTGDDSVSVEGHHHHHH,not soluble
5,MSLVEIVNRPYAKAFEAFATARPEVLCLSADLTSSCEVDGFRDRHPEQFLTLGMAEQNMLSFAGGLAMQGFRPFIHTFSVFLYRRPYDQLINSIAYSNRKVRLMGFLPGITTPGGITHQAIEDIAVLRAVPNMTILETGDATEVETVLEVADSIDGPVYVRILRGEVPRLFSTPFEFNKLRTLSEGDDILVVSSGVCTEEALRATGPLAARGVGIHHLHASTLKPFDKDGLLRAARGKKGIVTLENHTIIGGLGSLVSEILAEEGLGIRLKRLGLNDTFAHGASKPYLMKKYGLDAGALVSAIEELVGKNLAIGEEELVEVRLDHVHSAQKAEALEGHHHHHH,not soluble
6,MSLVHQLLAQMENGYMKIIKENLVGIYLHGSYAFGTYCHSVSDLDVLIVVYEKLTIDEKKQLLDYTINILDKWAPKKGIEFHVLQLKDTINLSYPIPFDLHFSPIHRSRYLTNKNKYIEDMMGYDEDLVAHLMITKLYGKVLVGKPIDSVFGWIDQKKYFESIVADVKEAKKEIVQQPMYVILNMCRVMAFKQENKILSKRAGGEWGLVHFPTNHHSLIQLALKEYRGETVLLEQYNDSELNDFADIMLSLLFKEGHHHHHH,not soluble
7,MSLVIFIMKKRYICILPYSLSYGGVFIDCKEVIANYWNFRSSTYKNGINGFDEEERAVWKQIFENSLASGKRLKVLDVGTGTGFLALLFAEMGHEVSGIDLSEGMLEKARHNADNMGLEISLFHGDAENLPFEDCSFDLVVNKYLLWTLQEPASAVREWKRVLKPGGMIFAIDGNWFDPRPDRYIKRMLYGLAERFAKKNQYNLIFKKSYGPIRNSLPLYEKISPKNISFLFSETGLMNTEISPLLEVQKFQRNRHSFSRRIFENNSIFLISGQKNEGHHHHHH,not soluble
8,MSLVSVIILASGNSQRMGQNKLFLKYQGKTFLEHTLTLVNQLDVLERILVVSPENQPAFPLPKNIQLILNHQWQEGQSSSIRLGTEQARGAGYLYLPSDQPLLTPKMLQLVLDKCQRNKIVVPLQKDGCPSSPVLFGNQFRQELLTLTGEKGGRMIYERFPEAVQMLRIATPGRLKDIDTPEEYQKLIQETNSLEHHHHHH,not soluble
9,MSLVTLADANPAQLAPFAGGAFEVAPLDVADEAALTVFLTRQDIVVSACPYFLNKTIARVAVATGTHYFDLTEDVETTAFIKALGETADVALVPQCGLAPGFICILGADMAARFERVKSVKMRVGALPLYPTNALSYNVTWSVDGLINEYCNPCEIVFEGRPTLVPALEGLEHVMIDGVSYEAFNTSGGLGTLTETLDGRVSDLSYKTLRYPGHAEIMKLLLRGLELADDRETLRRILNRAAPFTRKDVVVVFVEGHHHHHH,not soluble
10,MSLVTLRSLAQQLKVHVSTVSRVLNGTDDDARNAAAPETVERIRELAQQLNYRPNPHAIGLRTQKTRTVSVLVPQLSDLVVATIYEGIDAAAADSRYLTFVANTGDAPPRQRQLGEMALDRRVEGLIFADARRDDTRFLDEIARRGVPMVLVSRHLGTHCAVTCDDVAGGRMAAEHLLALGHRDIAVLAGEQYASTGCDRSAGFIAYCREQGVDIPAKWILHGPFDTRAGRLAGEKLFRSARKPSAVFAVNDFLAIGLMGAVRDRGLRAGHDVAIVGFNDTPLAAELPISLTTIRSPMHAMGYRSMELLLERIKGGRPASERLAPQLMVRASTCPREGIITITTDPNSSSVDKLAAALEHHHHHH,soluble
11,MSLVVGTDAHKYSHTFVATDEVGRQLGEKTVKATTAGHATAIMWAREQFGLELIWGIEDCRNMSARLERDLLAAGQQVVRVPTKLMAQTRKSARSRGKSDPIDALAVARAVLRETDLPLATHDETSRELKLLTDRRDVLVAQRTSAINRLRWLVHELDPERAPAARSLDAAKHQQALRTWLDTQPGLVAELARAELTDIIRLTGEINTLAQRISARVHQVAPALLEIPGCAELTAAKIVGEAAGVTRFKSEAAFACHAAVAPIPVWSGNTAGQMRLSRSGNRQLNAALHRIALTQIRMTDSRGQAYYQRLQDAGKTKRAALRCLKRRLARTVFQALRTVHQPSSEHTQPAAACHRSYCSSHLGEPPRLTDMTQKTRIQPLPPKRAGLLIRALYRIAKRRFGEVPEPFTVTAHHRRLLIANVVHEALLQRASRKLPPSVRELAVFWTARSIGCSWCVDFGAMLQRLDGLDVDRLTDIDNYATSSKFSDDERAAIAYAEAMTADPHSVTDEQVADLRARFGEAGVIELTYQIGVENMRARMNSALGITEQGFNSGDACRVPWAAPDVPSAESREGHHHHHH,not soluble
12,MSLYDPAEKYFNCTDIQRAFFEAGIKLGAIFHQYTGIPVNSENASMAEEFIERSTMIQPFVENVRISINNVKRSSGTYSYSSLNEKMLHAEVLINYNGKKVLGVLNYDEGLDYPVMYAKEVLEGHHHHHH,soluble
13,MSLYEPADGILETHVTWEDVEKDLQQSLGTRATFGENKRATNISDLKGFMSRIACLEPDWQNIEEGKELPSKFALKISSQLALVALSKIMNFEEGAGFSEEKLKKFSSLTKECHNREVDAYKVLMKFNHPDIPYTKGYMIIDFVPNIQTVEMYKSISADTIIPIIRGVATFSALGERLSKEDQHFVMGPTYLEMIFEDFFNDVELKKKFDTLRTTFEETENQEKVEKLITVFEHYKSLVKKYTNISDILGVKLVLNHGDLSQPNVLFSLDPQNKLKLEAIIDWQCVSRMPPGLDTARLLLGCLSGQERRERGTELLKVYHETYTSVFGEELFTFQELQELFNLFAPMMAMMLLPVMPSSIQSAIIPEEDKVSALKEVKTKMIAMMEDILEIHDNNLNHFSDFMKI,not soluble
14,MSLYKTADGREIFIVDAHTHFWDGSPENQRNIHGKQFVDCFYAYHSALSPPEEKWEKSRFEKYSEDDIYRDLFVDGPDDMAIIQTTVLGDFYKTGFGCIERSTRMAARNPGRFIVNGAFDPRDGEKALEYIHYMKETHDITGVKLYTAEWHGDSRGWKLTDPAAYKCFELCDKLGIRNMHVHKGPTIIPLSKDSFSVGDVDDAATDFQGLNWIVEHCGLPRLDDFCWIAVQETNVYGGLAVALPFIHTRPRYFAEVIAELLFWLGPDKILFGSDYAIWTPKWLVDRFWNFQIPEDIAAERGVQLTDEIKEKILGLNAARLYGIDVDAKRRDFADHPVLIAAEGHHHHHH,soluble
15,MSLYSKDGENYFIVDAHVALWDARRENQRNIHGKQFIDCFYDYHRNLSPASELWPYEDFLYQGGERLMKDLFTDGYVDHAIFQPAHLGAFYNTGFGQTEEAFALTRKHPGMLTYNHCFDPRFEEAGLKQLREDAARFGLKGVKLYTAEWKGDSRGYKLSDPWTYRYLDACRELGIKNIHVHKGPTIRPLDRDAFDVADVDAAASDFTDLNFVVEHCGLPRLEDFCWIATQEPNVHAGLAVAIPFMHTRPRYFAQIIGELLYWLDEDRIQFSSDYALWTPRWIVEQFVDFRIPDDMTGEYPQLTVAQKKKILGLNAAAMYDIEVPAEGHHHHHH,soluble
16,MSLYYLFAPQFHPSKTVYVYVDRDDTADSIYNKIRQTGHVNKFTGFQWMAKYRKFDQNIHTGRYAIRPNENVYHVFSRFFRGYQEPMNLTIGSIRTLDRLARSIGKQLMIDSAEIARQLFDSAFQTEMGYTPVTMPCLFIPETYQVYWDMSVDDFFKRMQTEHKRFWNDERLAQATAIGMTPEEVCTLASIVEEETNNNEEKPMVAGLYINRLHTGMPLQADPTIKFALQDFGLRRITNEHLKVNSPYNTYINSGLPPGPIRIPSKKGLDSVLNYTKHNYIYMCAKEDFSGTHNFASNYADHMANARKYWKALNERKEGHHHHHH,not soluble
